Measured values reported in patent EP4613780A1 (Adlai Nortye Biopharma Co., Ltd., dated 2025).

What was measured:
[1] = target: PD-L1 on TCR activator PD-L1-CHO cells (BPS bioscience) (UniProt Q9NZQ7 19-290, limits assumed); assay: cell-based or functional assay
[2] = target: T1, human PD-L1 protein (Acro, PD1-H5258) (human, UniProt Q9NZQ7 19-238); assay: ELISA, coated human PD-L1
T1 construct: coated on the ELISA plate; also called human PDL1 antigen

[3] = target: T2, human CTLA4 protein (Acro, CT4-H52H9) (human, UniProt P16410 36-161); assay: ELISA, coated human CTLA4
T2 construct: coated on the ELISA plate; also called human CTLA4 antigen
T2 sequence (looked up): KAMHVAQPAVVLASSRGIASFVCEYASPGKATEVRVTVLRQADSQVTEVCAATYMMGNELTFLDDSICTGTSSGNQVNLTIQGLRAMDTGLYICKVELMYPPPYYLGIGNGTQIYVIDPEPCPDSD

[4] = target: T3, human CD28 protein (Acro, CD8-H525a) (human, UniProt P10747 19-152); assay: ELISA, coated human CD28
T3 construct: coated on the ELISA plate; also called human CD28 antigen
T3 sequence (P10747 19-152 limits assumed): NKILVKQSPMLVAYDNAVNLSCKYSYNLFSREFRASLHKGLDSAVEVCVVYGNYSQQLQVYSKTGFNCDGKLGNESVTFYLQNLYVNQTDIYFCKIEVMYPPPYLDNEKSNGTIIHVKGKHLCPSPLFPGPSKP

[5] = target: T4, hCTLA-4 (Octet R8 analyte) (human, UniProt P16410 36-161, limits assumed); assay: BLI Octet R8, Protein A probe
T4 sequence (looked up): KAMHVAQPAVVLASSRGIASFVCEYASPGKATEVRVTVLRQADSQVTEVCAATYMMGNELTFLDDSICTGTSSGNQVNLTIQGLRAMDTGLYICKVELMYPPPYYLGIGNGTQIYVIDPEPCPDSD

[6] = target: hCD28 (Octet R8 analyte) (human, UniProt P10747 19-152, limits assumed); assay: BLI Octet R8, Protein A probe
Sequence of hCD28 (Octet R8 analyte) (P10747 19-152 limits assumed): as the sequence (P10747 19-152 limits assumed) above

[7] = target: hPD-L1 (Octet R8 analyte) (human, UniProt Q9NZQ7 19-238, limits assumed); assay: BLI Octet R8, Protein A probe
Sequence of hPD-L1 (Octet R8 analyte) (Q9NZQ7 19-238 limits assumed): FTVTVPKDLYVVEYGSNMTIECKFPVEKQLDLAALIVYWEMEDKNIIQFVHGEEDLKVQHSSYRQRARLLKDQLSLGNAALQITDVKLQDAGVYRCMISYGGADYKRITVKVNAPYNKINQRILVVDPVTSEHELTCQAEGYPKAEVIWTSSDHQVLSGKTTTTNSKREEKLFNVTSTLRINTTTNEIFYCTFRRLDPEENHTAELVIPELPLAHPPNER

Sequence of PD-L1 on TCR activator PD-L1-CHO cells (BPS bioscience) (Q9NZQ7 19-290 limits assumed): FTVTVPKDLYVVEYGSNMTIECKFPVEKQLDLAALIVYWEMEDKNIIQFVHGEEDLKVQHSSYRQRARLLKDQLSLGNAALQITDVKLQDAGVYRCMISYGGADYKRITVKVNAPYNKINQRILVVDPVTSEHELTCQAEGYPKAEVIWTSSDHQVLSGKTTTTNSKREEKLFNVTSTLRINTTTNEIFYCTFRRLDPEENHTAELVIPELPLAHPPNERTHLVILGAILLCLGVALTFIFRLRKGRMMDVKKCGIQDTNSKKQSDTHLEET
T1 sequence (Q9NZQ7 19-238 limits assumed): as the sequence (Q9NZQ7 19-238 limits assumed) above

Jurkat-NFAT-Luc/CHO-PDL1 EC50 [1]: 90 pM | Top induction relative to 10nM sugemalimab [1]: 100% | EC50 [2]: 76.7 pM | binding result [3]: no binding | binding result [4]: no binding | binding result [5]: no binding (tested: 50nM) | binding result [6]: no binding (tested: 50nM) | Kd [7]: 581 pM
B1: antibody Abs-16 (sugemalimab) (antibody, human IgG4 S228P, lambda, V domains shown)
VH: EVQLLESGGGLVQPGGSLRLSCAASGFTFSSYAMSWVRQAPGKGLEWVSGISGSGGFTYYADSVKGRFTISRDNSKNTLYLQMNSLRAEDTAVYYCAKPPRGYNYGPFDYWGQGTLVTVSS
VL: SYVLTQPPSVSVAPGQTARITCGGNNIGSKSVHWYQQKPGQAPVLVVYDDSDRPSGIPERFSGSNSGNTATLTISRVEAGDEADYYCQVWDSSSDHVVFGGGTKLTVLG
notes: anti-PD-L1 control antibody; also called Sugemalimab (CS1001)
